In patent publication US20260125454A1 (SHANGHAI JUNSHI BIOSCIENCES, published 2026):

T1: Biotin-huCGRPaSA (human, not fully specified; biotin (position not given))
T1 construct: exact construct ('aSA') not explained; also called Biotin CGRPaSA; full-length (1-37) CGRP
T1 peptide: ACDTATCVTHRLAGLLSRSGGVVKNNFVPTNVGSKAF


Target: T1, Biotin-huCGRPaSA
Assay: ELISA, supernatant; relative to chimeric C245
Method: Biotin CGRPaSA was diluted with PBS (Hyclone) to 1.0 μg/mL, and the dilution was added to a microplate at 100 μL/well. The plate was let stand in an incubator at 37° C. and coated for 90 min and then washed, and 2% BSA was added to the plate at 200 μL/well. The plate was incubated in an incubator at 37° C. for 90 min and then washed. The humanized antibodies in Table 8 and the reference antibody (chimeric antibody C245) were diluted to 1000 ng/mL with a diluent (2% BSA) with a dilution factor of not more than 10. Then, the chimeric antibodies and the reference antibody were serially 2.5-fold diluted on a sample dilution plate. All the chimeric antibody solutions and the reference antibody solution were added into plates at 100 μL/well, and the plates were incubated in a thermostat incubator at 37° C. for 60 min and washed. An HRP-conjugated goat anti-human antibody IgG (manufacturer: Sigma, Cat. No. A0170; Fc specificity) was diluted 5000-fold with 2% BSA and added into the plates at 100 μL/well, and the plates were incubated in the thermostat incubator at 37° C. for 60 min and washed. Chromogenic reagent TMB was carefully added at 100 μL/well to avoid bubbles, and the system was incubated at 37° C. for 15 min away from light for chromogenic reaction. Finally, a 2 M hydrochloric acid solution was added at 100 μL/well to stop the reaction while avoiding bubbles, and the plates were read on a microplate reader within 10 min (wavelength: 450/620 nm).

Binder | Relative binding activity, %
hu14 (antibody, V domains shown, 1B2 HC-2/1A2 LC2-1) VH: QVQLVQSGAEVKKPGASVKVSCKASGYTFTDYNMHWVRQAPGQRLEWMGYIFPYNGVAVYNRKFRSRVTLTVDTSSSTAYMELSSLRSEDTAVYYCAREGLGGYWGQGTLVTVSS VL: DIVLTQSPASLAVSPGQRATITCKASQNIDYDGYAYLNWYQQKPGQPPKVLIYSVFNLESGVPARFSGSGSGTDFTLTINPVEANDTANYYCQQSNEFPYTFGQGTKLEIK | 32%
hu15 (antibody, V domains shown, 1B2 HC-2/1A2 LC2-2) VH: QVQLVQSGAEVKKPGASVKVSCKASGYTFTDYNMHWVRQAPGQRLEWMGYIFPYNGVAVYNRKFRSRVTLTVDTSSSTAYMELSSLRSEDTAVYYCAREGLGGYWGQGTLVTVSS VL: DIVLTQSPASLAVSPGQRATITCKASQNIDYDGYAYLNWYQQKPGQPPKVLIYSVFNLESGVPARFSGSGSGTDFTLTINPVEADDTANYYCQQSNEFPYTFGQGTKLEIK | 44%
hu105 (antibody, V domains shown, 2B8 HC1-1/1A2 LC2-1) VH: QVQLVQSGAEVKKPGASVKVSCKASGYTFTDYNMHWVRQAPGQGLEWMGNIYPYNGGTVYNQKFNNRVTLTVDTSSSTAYMELSRLRSDDTAVYYCAREGLGGYWGQGTLVTVSS VL: DIVLTQSPASLAVSPGQRATITCKASQNIDYDGYAYLNWYQQKPGQPPKVLIYSVFNLESGVPARFSGSGSGTDFTLTINPVEANDTANYYCQQSNEFPYTFGQGTKLEIK | 31%
hu41 (antibody, V domains shown, 1F5 HC-2/1A2 LC2-2) VH: QVQLVQSGAEVKKPGASVKVSCKASGYTFTDFNMHWVRQAPGQRLEWMGYIYPYNGDVVYNQNFTNRVTLTVDTSSSTAYMELSSLRSEDTAVYYCAREGLGGYWGQGTLVTVSS VL: DIVLTQSPASLAVSPGQRATITCKASQNIDYDGYAYLNWYQQKPGQPPKVLIYSVFNLESGVPARFSGSGSGTDFTLTINPVEADDTANYYCQQSNEFPYTFGQGTKLEIK | 61%
hu92 (antibody, V domains shown, 2A2 HC-1/1A2 LC2-1) VH: QVQLVQSGAEVKKPGASVKVSCKASGYTFTDYNMHWVRQAPGQRLEWMGYVYPYNGGSAYNQKFKSRVTLTVDTSSSTAYMELSSLRSEDTAVYYCAREGLGGYWGQGTLVTVSS VL: DIVLTQSPASLAVSPGQRATITCKASQNIDYDGYAYLNWYQQKPGQPPKVLIYSVFNLESGVPARFSGSGSGTDFTLTINPVEANDTANYYCQQSNEFPYTFGQGTKLEIK | 32%
hu46 (antibody, V domains shown, 1F5 HC-2/1F5 LC1-3) VH: QVQLVQSGAEVKKPGASVKVSCKASGYTFTDFNMHWVRQAPGQRLEWMGYIYPYNGDVVYNQNFTNRVTLTVDTSSSTAYMELSSLRSEDTAVYYCAREGLGGYWGQGTLVTVSS VL: DIVLTQSPASLAVSPGQRATITCKASQNIDFDGYAYMNWYQQKPGQPPKVLIYSVFNLESGVPARFSGSGSGTDFTLTINPVEADDTANYYCQQSHEVPYTFGQGTKLEIK | 25%
hu40 (antibody, V domains shown, 1F5 HC-2/1A2 LC2-1) VH: QVQLVQSGAEVKKPGASVKVSCKASGYTFTDFNMHWVRQAPGQRLEWMGYIYPYNGDVVYNQNFTNRVTLTVDTSSSTAYMELSSLRSEDTAVYYCAREGLGGYWGQGTLVTVSS VL: DIVLTQSPASLAVSPGQRATITCKASQNIDYDGYAYLNWYQQKPGQPPKVLIYSVFNLESGVPARFSGSGSGTDFTLTINPVEANDTANYYCQQSNEFPYTFGQGTKLEIK | 49%
hu54 (antibody, V domains shown, 1F5 HC-3/1A2 LC2-2) VH: QVQLVQSGAEVKKPGASVKVSCKASGYTFTDFNMHWVRQAPGQGLEWMGYIYPYNGDVVYNQNFTNRVTLTVDTSSSTAYMELRSLRSDDTAVYYCAREGLGGYWGQGTLVTVSS VL: DIVLTQSPASLAVSPGQRATITCKASQNIDYDGYAYLNWYQQKPGQPPKVLIYSVFNLESGVPARFSGSGSGTDFTLTINPVEADDTANYYCQQSNEFPYTFGQGTKLEIK | 22%
hu80 (antibody, V domains shown, 1F5 HC-5/1A2 LC2-2) VH: QVQLVQSGAEVKKPGASVKVSCKASGYTFIDFNMHWVRQAPGQRLEWMGYIYPYNADVVYNQDFTNRVTLTVDTSSSTAYMELSSLRSEDTAVYYCAREGLGGYWGQGTLVTVSS VL: DIVLTQSPASLAVSPGQRATITCKASQNIDYDGYAYLNWYQQKPGQPPKVLIYSVFNLESGVPARFSGSGSGTDFTLTINPVEADDTANYYCQQSNEFPYTFGQGTKLEIK | 99%
hu79 (antibody, V domains shown, 1F5 HC-5/1A2 LC2-1) VH: QVQLVQSGAEVKKPGASVKVSCKASGYTFIDFNMHWVRQAPGQRLEWMGYIYPYNADVVYNQDFTNRVTLTVDTSSSTAYMELSSLRSEDTAVYYCAREGLGGYWGQGTLVTVSS VL: DIVLTQSPASLAVSPGQRATITCKASQNIDYDGYAYLNWYQQKPGQPPKVLIYSVFNLESGVPARFSGSGSGTDFTLTINPVEANDTANYYCQQSNEFPYTFGQGTKLEIK | 80%
hu59 (antibody, V domains shown, 1F5 HC-3/1F5 LC1-3) VH: QVQLVQSGAEVKKPGASVKVSCKASGYTFTDFNMHWVRQAPGQGLEWMGYIYPYNGDVVYNQNFTNRVTLTVDTSSSTAYMELRSLRSDDTAVYYCAREGLGGYWGQGTLVTVSS VL: DIVLTQSPASLAVSPGQRATITCKASQNIDFDGYAYMNWYQQKPGQPPKVLIYSVFNLESGVPARFSGSGSGTDFTLTINPVEADDTANYYCQQSHEVPYTFGQGTKLEIK | 70%
hu27 (antibody, V domains shown, 1F5 HC-1/1A2 LC2-1) VH: QVQLVQSGAEVKKPGASVKVSCKASGYTFIDFNMHWVRQAPGQRLEWMGYIYPYNGDVVYNQNFTNRVTLTVDTSSSTAYMELSSLRSEDTAVYYCAREGLGGYWGQGTLVTVSS VL: DIVLTQSPASLAVSPGQRATITCKASQNIDYDGYAYLNWYQQKPGQPPKVLIYSVFNLESGVPARFSGSGSGTDFTLTINPVEANDTANYYCQQSNEFPYTFGQGTKLEIK | 28%
hu28 (antibody, V domains shown, 1F5 HC-1/1A2 LC2-2) VH: QVQLVQSGAEVKKPGASVKVSCKASGYTFIDFNMHWVRQAPGQRLEWMGYIYPYNGDVVYNQNFTNRVTLTVDTSSSTAYMELSSLRSEDTAVYYCAREGLGGYWGQGTLVTVSS VL: DIVLTQSPASLAVSPGQRATITCKASQNIDYDGYAYLNWYQQKPGQPPKVLIYSVFNLESGVPARFSGSGSGTDFTLTINPVEADDTANYYCQQSNEFPYTFGQGTKLEIK | 71%
hu118 (antibody, V domains shown, 2B8 HC1-2/1A2 LC2-1) VH: QVQLVQSGAEVKKPGASVKVSCKASGYTFTDYNMHWVRQAPGQGLEWMGNIYPYNGGTVYNQKFNNRVTLTVDTSSSTAYMELRSLRSDDTAVYYCAREGLGGYWGQGTLVTVSS VL: DIVLTQSPASLAVSPGQRATITCKASQNIDYDGYAYLNWYQQKPGQPPKVLIYSVFNLESGVPARFSGSGSGTDFTLTINPVEANDTANYYCQQSNEFPYTFGQGTKLEIK | 60%
hu93 (antibody, V domains shown, 2A2 HC-1/1A2 LC2-2) VH: QVQLVQSGAEVKKPGASVKVSCKASGYTFTDYNMHWVRQAPGQRLEWMGYVYPYNGGSAYNQKFKSRVTLTVDTSSSTAYMELSSLRSEDTAVYYCAREGLGGYWGQGTLVTVSS VL: DIVLTQSPASLAVSPGQRATITCKASQNIDYDGYAYLNWYQQKPGQPPKVLIYSVFNLESGVPARFSGSGSGTDFTLTINPVEADDTANYYCQQSNEFPYTFGQGTKLEIK | 45%
hu53 (antibody, V domains shown, 1F5 HC-3/1A2 LC2-1) VH: QVQLVQSGAEVKKPGASVKVSCKASGYTFTDFNMHWVRQAPGQGLEWMGYIYPYNGDVVYNQNFTNRVTLTVDTSSSTAYMELRSLRSDDTAVYYCAREGLGGYWGQGTLVTVSS VL: DIVLTQSPASLAVSPGQRATITCKASQNIDYDGYAYLNWYQQKPGQPPKVLIYSVFNLESGVPARFSGSGSGTDFTLTINPVEANDTANYYCQQSNEFPYTFGQGTKLEIK | 13%
hu106 (antibody, V domains shown, 2B8 HC1-1/1A2 LC2-2) VH: QVQLVQSGAEVKKPGASVKVSCKASGYTFTDYNMHWVRQAPGQGLEWMGNIYPYNGGTVYNQKFNNRVTLTVDTSSSTAYMELSRLRSDDTAVYYCAREGLGGYWGQGTLVTVSS VL: DIVLTQSPASLAVSPGQRATITCKASQNIDYDGYAYLNWYQQKPGQPPKVLIYSVFNLESGVPARFSGSGSGTDFTLTINPVEADDTANYYCQQSNEFPYTFGQGTKLEIK | 38%
hu20 (antibody, V domains shown, 1B2 HC-2/1F5 LC1-3) VH: QVQLVQSGAEVKKPGASVKVSCKASGYTFTDYNMHWVRQAPGQRLEWMGYIFPYNGVAVYNRKFRSRVTLTVDTSSSTAYMELSSLRSEDTAVYYCAREGLGGYWGQGTLVTVSS VL: DIVLTQSPASLAVSPGQRATITCKASQNIDFDGYAYMNWYQQKPGQPPKVLIYSVFNLESGVPARFSGSGSGTDFTLTINPVEADDTANYYCQQSHEVPYTFGQGTKLEIK | 40%
hu111 (antibody, V domains shown, 2B8 HC1-1/1F5 LC1-3) VH: QVQLVQSGAEVKKPGASVKVSCKASGYTFTDYNMHWVRQAPGQGLEWMGNIYPYNGGTVYNQKFNNRVTLTVDTSSSTAYMELSRLRSDDTAVYYCAREGLGGYWGQGTLVTVSS VL: DIVLTQSPASLAVSPGQRATITCKASQNIDFDGYAYMNWYQQKPGQPPKVLIYSVFNLESGVPARFSGSGSGTDFTLTINPVEADDTANYYCQQSHEVPYTFGQGTKLEIK | 46%
